Positions count from the first letter of the chain named.
T1: human DLL3 antigen (human, UniProt Q9NYJ7 27-492)
T1 chain: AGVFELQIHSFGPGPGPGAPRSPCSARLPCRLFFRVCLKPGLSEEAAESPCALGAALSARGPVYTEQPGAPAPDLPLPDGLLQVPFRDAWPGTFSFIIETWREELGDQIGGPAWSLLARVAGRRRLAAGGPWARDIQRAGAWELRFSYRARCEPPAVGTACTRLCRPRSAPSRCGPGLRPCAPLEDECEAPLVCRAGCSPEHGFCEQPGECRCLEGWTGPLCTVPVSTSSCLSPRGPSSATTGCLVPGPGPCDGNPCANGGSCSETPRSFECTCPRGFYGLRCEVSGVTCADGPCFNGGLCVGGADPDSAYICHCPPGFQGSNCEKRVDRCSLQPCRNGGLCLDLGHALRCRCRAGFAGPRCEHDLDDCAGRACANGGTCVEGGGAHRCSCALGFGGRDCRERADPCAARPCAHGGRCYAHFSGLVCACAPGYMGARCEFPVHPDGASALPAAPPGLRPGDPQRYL

B1: SC16.13 (antibody, V domains shown)
VH: QVTLKESGPGILQPSQTLSLTCSFSGFSLSTSGMGVGWIRQPSGKGLEWLAHIWWDDVKRYNPALKSRLTISKDTSSSQVFLKIASVDTADTATYYCARIVSFDNDVVSAMDYWGQGTSVTVSS
VL: QIVLTQSPALVSASPGEKVTMTCSASSSVSYMYWYQQKPRSSPKPWIYLTSNLASGVPARFSGSGSGTSYSLTISSMEAEDAATYYCQQWRSNPFTFGSGTKLEIK
B2: SC16.65 (antibody, V domains shown)
VH: B1 VH with H52L, T75A, V101A, F103Y, N105Y, S109Y, T121S
VL: B1 VL with V11M, A25V, S26T, M77V, S92N, L103V
B3: SC16.34 (antibody, V domains shown)
VH: QIQLVQSGPELKRPGETVKISCKASGYTFTNYGMNWVKQAPGKGLKWMGWINTYTGDPTYADDFKGRFAFSLETSASTAYLQINNLKNEDTATYFCARIGGNSPSDYWGQGTSLTVSS
VL: SIVMTQTPKFLLVSAGDRVTITCKASQSVSNDVAWYQQKPGQSPKLLIYYASNRYSGVPDRFTGSGYGTDFTFTISTVQAEDLAVYFCQQDYSSPWTFGGGTKLEIK
B4: SC16.56 (antibody, V domains shown)
VH: B3 VH with R13K, G49A, D57E, Y80S, N84I, G101D, N102S, S113T
VL: B3 VL with A34V, S56T, T63A, T72S, S93T, K107R
B5: SC16.25 (antibody, V domains shown)
VH: QVTLKESGPGILQPSQTLSLTCSFSGFSLSTSGMGVGWIRQPSGEGLEWLTDIWWDDNKYYNPSLKSRLTISKDTSSNQVFLNITSVDTADTATYYCARRVNYYYDPYYAMDYWGQGTSVTVSS
VL: QIVLTQSPAIMSASPGEKVTMTCSASSSVSYMHWYQQKSGTSPKRWIYDSSKLASGVPARFSGSGSGTSYSLTISSMEAEDAATYYCQQWSSNPLTFGAGTKLELK
B6: SC16.15 (antibody, V domains shown)
VH: QVQLQQSGAELAKPGASVKMSCKASGYTFTRYWIHWIKQRPGQGLEWIGYINPTTVYTEFNQNFKDKATLTADKSSTTASMQLSSLTSEDSAVYYCARGGSNFFDYWGQGTTLTVSS
VL: DIQMTQSPASLAASVGETVAITCRASENIYYNLAWYQQKQGKSPQLLIYTANSLEDGVPSRFSGSGSGTQYSLKINSMQPEDSATYFCKQAYDVPPTFGGGTKLEIK
B7: hSC16.13 (antibody, V domains shown)
VH: QITLKESGPTLVKPTQTLTLTCTFSGFSLSTSGMGVGWIRQPPGKALEWLAHIWWDDVKRYSPSLKSRLTITKDTSKNQVVLTMTNMDPVDTATYYCARIVSFDNDVVSAMDYWGQGTLVTVSS
VL: DIQMTQSPSSLSASVGDRVTITCSASSSVSYMYWYQQKPGKAPKLLIYLTSNLASGVPSRFSGSGSGTDFTLTISSLQPEDFATYYCQQWRSNPFTFGQGTKLEIKR
B8: hSC16.15 (antibody, V domains shown)
VH: QVQLVQSGAEVKKPGASVKVSCKASGYTFTRYWIHWIRQAPGQGLEWMGYINPTTVYTEFNQNFKDRVTMTRDTSTSTVYMELSSLRSEDTAVYYCARGGSNFFDYWGQGTTVTVSS
VL: AIQLTQSPSSLSASVGDRVTITCRASENIYYNLAWYQQKPGKAPKLLIYTANSLEDGVPSRFSGSGSGTDFTLTISSLQPEDFATYFCKQAYDVPPTFGGGTKLEIK
B9: hSC16.25 (antibody, V domains shown)
VL: EIVLTQSPDFQSVTPKEKVTITCSASSSVSYMHWYQQKPDQSPKLLIKDSSKLASGVPSRFSGSGSGTDFTLTINSLEAEDAATYYCQQWSSNPLTFGQGTKLEIK
V domain: QITLKESGPTLVKPTQTLTLTCTFSGFSLSTSGMGVGWIRQPPGKALEWLTDIWWDDNKYYNPSLKSRLTITKDTSKNQVVLTMTNMDPVDTATYYCARRVNYYYDPYYAMDYWGQGTTLVTVS
B10: hSC16.34 (antibody, V domains shown)
VH: QVQLVQSGAEVKKPGASVKVSCKASGYTFTNYGMNWVRQAPGQRLEWMGWINTYTGDPTYADDFKGRVTITRDTSASTAYMELSSLRSEDTAVYYCARIGGNSPSDYWGQGTTVTVSS
VL: DIQMTQSPSSLSASVGDRVTITCKASQSVSNDVAWYQQKPGKVPKLLIYYASNRYSGVPSRFSGSGSGTDFTLTISSLQPEDVATYFCQQDYSSPWTFGGGTKVEIK
B11: hSC16.56 (antibody, V domains shown)
VH: B10 VH with R44G, D57E, I70M, R72T, A76T, S84R, E89D, G101D, N102S, T113L
VL: EIVMTQSPATLSVSPGERATLSCKASQSVSNDVVWYQQKPGQAPRLLIYYASNRYTGIPARFSGSGSGTEFTLTISSLQSEDFAVYYCQQDYTSPWTFGQGTKLEIKR
B12: SC16.67 (antibody, V domains shown)
VH: EVQLVETGGGLVQPKGSLKLSCAVSAFTFTTYAMNWVRQAPGKGLEWVARIRNKSNNYATYYADSVKDRFTISRDDSQSMLYLQMNNLKIEDTAMYYCVFYYDYVYWGQGTLVTVSA
VL: QAVVTQESALTTSPGETVTLTCRSSTGAVTTSNYANWIQEKPDHLFTGLIGGTNNRAPGVPARFSGSLIGDKAALTITGAQTEDEAIYFCGLWYSNHLVFGGGTKLTVL
B13: SC16.8 (antibody, V domains shown)
VH: QAQLQQSGAELVRPGTSVKVSCKASGYAFTNYLIEWVKQRPGQGLEWIGVINPGTGGTNYNENFKGKATLTADKSSSTAYMQLSSLTSDDSAVYFCARSPYDYHEGAMDYWGQGTSVTVSS
VL: EIQMTQSPSSMSASLGDRITITCQATQDIVKNLNWYQQKPGKPPSFLIYYAIELAEGVPSRFSGSGSGSDYSLTISNLESEDFADYYCLQFYEFPFTFGAGTKLELK
B14: SC16.10 (antibody, V domains shown)
VH: QVTLKESGPGILQSSQTLSLTCSFSGFSLSTSGMGVGWIRQPSGKGLEWLAHIWWDDVKRYNPVLKSRLTISKDTSSSQVFLKIASVDTADTATYYCARLVDDLYYFDYWGQGTTLTVSS
VL: QIVLTQSPAIMSASLGERVTMTCTASSSVSSSYLHWYQQKPGSSPKLWIYSTSNLASGVPTRFSGSGSGTSYSLTISSMEAEDAATYYCHQYHRSPFTFGSGTKLEIK
B15: SC16.4 (antibody, V domains shown)
VH: QIQLVQSGPELKKPGETVKISCKASGYTFTDYSMHWVKQAPGKGLKWMGWINTETGEPGYADDFKGRFAFSLETSASTAYLQINNLKNEDTATYFCARYDGYAMDYWGQGTSVTVSS
VL: DIQMTQTTSSLSASLGDRVTISCRASQDISNYLNWYQQKPDGTVKLLIYYTSRLHSGVPSRFSGSGSGTDYSLTISNLELEDIATYFCQQGDMLPWTFGGGTKLEIK
B16: SC16.39 (antibody, V domains shown)
VH: EVKLEESGGGLVQFGGSMKLSCAASGFTFSDAWMDWVRQSPEKGLEWVAEIRNKANNHATYYPESVKGRFTISRDDSKSRVYLQMNNLRAEDTGIYYCTGYSSFAYWGQGTLVTVSA
VL: B15 VL with I29V, S30I, G68R, L80P, F87Y, G91Y, D92S, M93E, L94R, W96Y

Biological target: T1, human DLL3 antigen
Test: Biacore SPR

| Kd | Binder |
| --- | --- |
| 2 nM | B1 |
| 0.9 nM | B2 |
| 0.2 nM | B3 |
| 1 nM | B4 |
| 0.2 nM | B5 |
| 0.5 nM | B6 |

Biological target: T1, human DLL3 antigen
Test: SPR

| Kd | Binder |
| --- | --- |
| 0.5 nM | B7 |
| 0.3 nM | B1 |
| 0.2 nM | B8 |
| < 0.2 nM | B9 |
| 0.6 nM | B3 |
| 0.5 nM | B4 |
| 0.9 nM | B10 |
| 0.5 nM | B11 |
| < 0.2 nM | B5 |

Biological target: T1, human DLL3 antigen
Test: ForteBio

| Kd | Binder |
| --- | --- |
| 0.5 nM | B12 |
| 0.5 nM | B13 |
| 4 nM | B14 |
| 0.5 nM | B15 |

Biological target: T1, human DLL3 antigen
Test: ForteBio
Remark: another data set of the same source

| Kd | Binder |
| --- | --- |
| 1 nM | B16 |

Reference: US20140370037A1 (published 2014)
